These results are taken from paper PMC3835166 (Journal of molecular biology, 2012).

First the molecules themselves.
B2: raver1 RRM1-3 domains (residues 39-321) (domain or fragment, human, UniProt Q8IY67 39-321, looked up)
chain: LDPEEIRKRLEHTERQFRNRRKILIRGLPGDVTNQEVHDLLSDYELKYCFVDKYKGTAFVTLLNGEQAEAAINAFHQSRLRERELSVQLQPTDALLCVANLPPSLTQQQFEELVRPFGSLERCFLVYSERTGQSKGYGFAEYMKKDSAARAKSDLLGKPLGPRTLYVHWTDAGQLTPALLHSRCLCVDRLPPGFNDVDALCRALSAVHSPTFCQLACGQDGQLKGFAVLEYETAEMAEEAQQQADGLSLGGSHLRVSFCAPGPPGRSMLAALIAAQATALNRG

Data set [1] has as its target B2. Kind of data set: native gel or EMSA. (Mobility shift assays separate free from complexed probe on a gel.)
Data set [2] has as its target T1, full-length human metavinculin (human, UniProt P18206 1-1134).
T1 sequence (looked up): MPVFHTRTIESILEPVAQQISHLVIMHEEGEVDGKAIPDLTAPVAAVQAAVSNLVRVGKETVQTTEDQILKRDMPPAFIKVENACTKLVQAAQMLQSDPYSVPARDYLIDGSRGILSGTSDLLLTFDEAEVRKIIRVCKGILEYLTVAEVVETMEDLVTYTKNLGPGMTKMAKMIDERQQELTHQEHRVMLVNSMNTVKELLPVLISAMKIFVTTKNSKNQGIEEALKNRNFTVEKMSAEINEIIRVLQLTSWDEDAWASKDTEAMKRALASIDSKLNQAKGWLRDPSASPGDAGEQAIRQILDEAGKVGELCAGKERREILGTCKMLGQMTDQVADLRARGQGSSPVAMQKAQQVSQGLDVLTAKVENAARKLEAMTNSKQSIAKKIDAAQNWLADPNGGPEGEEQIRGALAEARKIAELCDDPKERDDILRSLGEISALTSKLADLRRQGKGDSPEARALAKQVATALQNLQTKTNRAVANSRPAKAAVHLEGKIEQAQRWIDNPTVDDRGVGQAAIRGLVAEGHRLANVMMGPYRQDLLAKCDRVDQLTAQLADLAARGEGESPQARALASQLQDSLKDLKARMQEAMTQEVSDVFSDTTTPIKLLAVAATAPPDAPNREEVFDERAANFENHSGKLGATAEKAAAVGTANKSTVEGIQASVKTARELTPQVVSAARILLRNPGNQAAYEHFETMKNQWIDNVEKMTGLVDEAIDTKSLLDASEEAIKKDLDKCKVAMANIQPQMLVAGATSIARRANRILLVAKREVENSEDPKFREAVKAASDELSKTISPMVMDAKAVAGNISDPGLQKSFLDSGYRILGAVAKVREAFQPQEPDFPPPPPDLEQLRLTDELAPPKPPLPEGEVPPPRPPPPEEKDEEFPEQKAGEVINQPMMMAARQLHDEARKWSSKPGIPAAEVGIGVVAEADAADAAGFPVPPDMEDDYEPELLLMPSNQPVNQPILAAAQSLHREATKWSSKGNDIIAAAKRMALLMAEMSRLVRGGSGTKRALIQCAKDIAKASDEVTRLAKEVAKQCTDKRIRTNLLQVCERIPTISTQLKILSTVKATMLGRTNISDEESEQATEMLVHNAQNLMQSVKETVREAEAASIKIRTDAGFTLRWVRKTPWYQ
Kind of data set: native gel or EMSA.

Data set [3] addresses T2, raver1 RRM1-3 (UniProt Q8IY67 39-321).
T2 sequence: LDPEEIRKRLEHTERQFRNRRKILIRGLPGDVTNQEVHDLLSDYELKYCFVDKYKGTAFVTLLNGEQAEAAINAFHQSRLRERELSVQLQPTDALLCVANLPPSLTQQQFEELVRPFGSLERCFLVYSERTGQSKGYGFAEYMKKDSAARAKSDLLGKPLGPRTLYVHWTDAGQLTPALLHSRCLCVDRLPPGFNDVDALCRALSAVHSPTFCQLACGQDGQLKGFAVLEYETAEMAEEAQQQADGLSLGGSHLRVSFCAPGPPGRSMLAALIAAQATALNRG
Kind of data set: EMSA.

Data set [4] has as its target T3, raver1 RRM2-RRM3 (UniProt Q8IY67 129-321).
T3 sequence: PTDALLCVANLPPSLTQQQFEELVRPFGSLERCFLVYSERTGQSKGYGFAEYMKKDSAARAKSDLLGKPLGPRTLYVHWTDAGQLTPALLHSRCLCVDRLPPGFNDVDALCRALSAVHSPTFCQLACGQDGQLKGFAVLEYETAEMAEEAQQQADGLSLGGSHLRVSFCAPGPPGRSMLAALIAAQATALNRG
Kind of data set: EMSA.

Data set [5] has as its target metavinculin tail MVt;raver1 RRM1-3 (Homo sapiens;Homo sapiens?, UniProt P18206;Q8IY67 856-1134;39-321, |). Kind of data set: EMSA.

B1: MVt (metavinculin tail domain, residues 856-1134) (domain or fragment, human, UniProt P18206 856-1134, looked up)
chain: DELAPPKPPLPEGEVPPPRPPPPEEKDEEFPEQKAGEVINQPMMMAARQLHDEARKWSSKPGIPAAEVGIGVVAEADAADAAGFPVPPDMEDDYEPELLLMPSNQPVNQPILAAAQSLHREATKWSSKGNDIIAAAKRMALLMAEMSRLVRGGSGTKRALIQCAKDIAKASDEVTRLAKEVAKQCTDKRIRTNLLQVCERIPTISTQLKILSTVKATMLGRTNISDEESEQATEMLVHNAQNLMQSVKETVREAEAASIKIRTDAGFTLRWVRKTPWYQ
Consider B1, for which the binding result in data set [1] was “binds”.
Take B2: in data set [2], the binding result is on record as “binds”.
Turning to UCAUGCAGUCUG (ssRNA) [vinculin RNA 3089-3100], the binding result is on record as “binds” in data set [3], “no binding” in data set [4] and “binds” in data set [5].
